{
  "source": "paper PMC11267001",
  "about": "“RhoG facilitates a conformational transition in the guanine nucleotide exchange factor complex DOCK5/ELMO1 to an open state” (The Journal of Biological Chemistry, 2024)",
  "binders": {"B1": {"name": "constitutively active RhoG^Q61L mutant (GTPase domain, residues 1-184) (domain or fragment)", "chain": "not shown"}},
  "key": {"[1]": {"biological_target": "human full-length ELMO1 (ELMO1^FL, residues 1-727) (human, UniProt Q92556 1-727)", "test": "cryo-EM structure; DOCK5^ΔC/ELMO1^FL/Rac1^G15A (0.9 μM) mixed with RhoG^Q61L (15 μM), cross-linked with 1 mM BS3, SEC; 20 mM HEPES-NaOH pH 8.0, 300 mM NaCl, 1 mM TCEP, 0.06% digitonin", "conditions": "both partners purified"}, "[2]": {"biological_target": "C-terminal truncated DOCK5 (DOCK5^ΔC, residues 1-1642) (human, UniProt Q9H7D0 1-1642)", "test": "cryo-EM structure; DOCK5^ΔC/ELMO1^FL/Rac1^G15A (0.9 μM) mixed with RhoG^Q61L (15 μM), cross-linked with 1 mM BS3, SEC; 20 mM HEPES-NaOH pH 8.0, 300 mM NaCl, 1 mM TCEP, 0.06% digitonin", "conditions": "both partners purified"}},
  "data": [
    {"binder": "B1", "values": [
      {"measurement": "binding result", "setting": "[1]", "value": "binds"},
      {"measurement": "binding result", "setting": "[2]", "value": "binds"}
    ]}
  ]
}
